In article PMC4833410, “Structure-Guided Mutations in the Terminal Organelle Protein MG491 Cause Major Motility and Morphologic Alterations on Mycoplasma genitalium” (PLoS Pathogens, 2016):

Legend:
[1] = biological target: MG491-Nt (residues 1 to 308) (Mycoplasma genitalium G37) (UniProt Q9ZB78); experiment: SEC; Superdex 200 16/60 gel filtration column, 0.05 M Tris-HCl (pH 8.0), 0.15 M NaCl; apparent molecular weight
[2] = biological target: MG491-Nt (residues 1 to 308) (Mycoplasma genitalium G37) (UniProt Q9ZB78); experiment: native MS; nano-ElectroSpray Ionization Mass Spectrometry, 10 μM MG491-Nt in 100 mM NH4OAc, acquisition range 500-8000 m/z
[3] = biological target: MG491-Nt (residues 1 to 308) (Mycoplasma genitalium G37) (UniProt Q9ZB78); experiment: crystal structure; vapour diffusion at 20°C, 0.2 M lithium sulphate, 25% PEG 3350, pH 6.5-8.5; space group P2(1)2(1)2, four subunits in the asymmetric unit; SAD on seleno methionine MG491-Nt, averaging between crystals
[4] = biological target: the molecule itself; experiment: as above

Molecule | stoichiometry N [1] | stoichiometry N [2] | stoichiometry N [3] | stoichiometry N [4]
MG491-Nt (residues 1 to 308) (from UniProt Q9ZB78 1-308) (domain or fragment) | 4 | 4 | 4 | 
full length MG491 protein (residues 1 to 346) (natural protein, MG491, terminal organelle protein of Mycoplasma genitalium G37, residues 1-346; the TGA codon of Trp232 was changed to TGG for expression in E. coli (no change of the protein); Cloned in pET21d between NdeI and XhoI; In the crystals the C-terminal region was lost by proteolysis; also called MG_491 gene product; wild type MG491; source: E. coli BL21 (DE3), purified (HisTrap HP, Superdex 200 16/60)) MVNNEYQQLNTLVESDDEADLVIANLVKQLNELKQILVSLDNQEASATAVTDKKEEEYNQNQSSFHNFSKETLQKQAKRGFLLLERCSLVGLQQLELEYVNLLGRSFDSYQQKTELLNNLKELVDEHFSDTEKIINTLEKIFDVIGGSEYTPVLNSFFNKLLSDPDPIQREIGLRQFIITLRQRFKKLSQKIDSSLKQIETEAKIATEQVQNSEVMFGPPDIANDHELNLNWPDSETDAILSSMENELEAALLAKHQEEPPLIVTPPSLIKPTVSQPEVEVVTPTNNTNFQPQVDLKPTDLKKQQKKKPLNFITRPVFKSNLPPKLSKDDIVHYAHQLLEKNTHNE |  |  |  | 4
seleno methionine-labeled MG491-Nt (domain or fragment, seleno methionines at 36, 168 and 205, MG491 of Mycoplasma genitalium G37, residues 1-308, with Ile36, Ile168 and Ile205 replaced by (seleno)methionine; residues 65-204, 67-203, 66-203 and 62-205 of subunits A-D are seen in the structure; also called Seleno methionine MG491-Nt; MG491-Nt variant with Ile36, Ile168, Ile205 replaced by seleno methionines; source: E. coli BL21 (DE3) in SelenoMet medium, purified (HisTrap HP, Superdex 200 …)) MVNNEYQQLNTLVESDDEADLVIANLVKQLNELKQMLVSLDNQEASATAVTDKKEEEYNQNQSSFHNFSKETLQKQAKRGFLLLERCSLVGLQQLELEYVNLLGRSFDSYQQKTELLNNLKELVDEHFSDTEKIINTLEKIFDVIGGSEYTPVLNSFFNKLLSDPDPMQREIGLRQFIITLRQRFKKLSQKIDSSLKQIETEAKMATEQVQNSEVMFGPPDIANDHELNLNWPDSETDAILSSMENELEAALLAKHQEEPPLIVTPPSLIKPTVSQPEVEVVTPTNNTNFQPQVDLKPTDLKKQQKKK |  |  |  | 4
